Results as given in patent US20130230533A1 (Regeneron, published 2013).
One block for each binder: values may come before it.

Tests used:
[1] = biological target: T1, human CD48 (on primary human peripheral blood mononuclear cells) (human, UniProt P09326 27-220); experiment: cell-based or functional assay
T1 sequence: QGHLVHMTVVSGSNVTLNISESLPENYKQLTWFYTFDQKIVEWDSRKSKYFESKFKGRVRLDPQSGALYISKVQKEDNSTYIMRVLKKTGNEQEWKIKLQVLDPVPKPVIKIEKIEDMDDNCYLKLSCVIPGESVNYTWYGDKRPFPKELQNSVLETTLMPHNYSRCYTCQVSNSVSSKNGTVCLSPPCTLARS

[2] = biological target: T1, human CD48 (on primary human peripheral …); experiment: cell-based or functional assay; remark: listed apart in the source
[3] = biological target: T2, monomeric monkey CD48 expressed with a tag consisting of 2 myc and one 6-His epitopes (monkey); experiment: competition ELISA; blocks mfCD48-mmH binding to coated h2B4-mFc
T2 construct: also called mfCD48-mmH; Monomeric monkey CD48-mmH
T2 chain: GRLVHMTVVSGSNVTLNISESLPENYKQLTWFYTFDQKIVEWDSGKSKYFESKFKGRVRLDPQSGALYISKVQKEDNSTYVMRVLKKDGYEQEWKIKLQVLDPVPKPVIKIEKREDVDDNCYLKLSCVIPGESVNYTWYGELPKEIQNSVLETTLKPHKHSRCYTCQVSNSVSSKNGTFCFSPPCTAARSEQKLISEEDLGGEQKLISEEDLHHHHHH
Description: (§1) The ability of human anti-CD48 monoclonal antibodies to block human CD48 and monkey CD48 binding to the human cognate ligand, human 2B4, was measured using a competition sandwich ELISA (Table 8). Constant amounts of biotinylated dimeric human CD48 protein expressed as a fusion with mouse IgG2a Fc (“bio-hCD48-mFc” [SEQ ID NO: 387]) or monomeric monkey CD48 expressed with a tag consisting of 2 myc and one 6-His epitopes (“mfCD48-mmH” [SEQ ID NO: 386]) were separately titrated with varying amounts of antibodies. These antibody-protein complexes were incubated (1 hr, 25° C.) before being transferred to microtiter plates coated with a dimeric construct expressing the human 2B4 receptor fused to a either human IgG1 (h2B4-hFc [R&D Systems, Inc., Minneapolis, Minn., Cat. No. 1039-2B]) or mouse IgG2a Fc (h2B4-mFc [SEQ ID NO: 389). After a 1 hr at 25° C. the wells were washed and bound human CD48 was detected with streptavidin conjugated with horse-radish peroxidase (HRP), and monkey CD48 was detected with an HRP conjugated anti-myc polyclonal antibody. The ELISA was developed with a TMB solution to produce a colorimetric reaction and quenched with sulfuric acid before reading absorbance at 450 nm on a Victor X5 plate reader. Sigmoidal dose response curves were fit to the data using Prism™ software. […] (Tables 8 and 9, NB=no binding observed)

[4] = biological target: T3, biotinylated dimeric human CD48 protein expressed as a fusion with mouse IgG2a Fc (human, biotinylated); experiment: competition ELISA; blocks bio-hCD48-mFc binding to coated h2B4-mFc
T3 construct: also called bio-hCD48-mFc; Dimeric human CD48-mFc
T3 chain: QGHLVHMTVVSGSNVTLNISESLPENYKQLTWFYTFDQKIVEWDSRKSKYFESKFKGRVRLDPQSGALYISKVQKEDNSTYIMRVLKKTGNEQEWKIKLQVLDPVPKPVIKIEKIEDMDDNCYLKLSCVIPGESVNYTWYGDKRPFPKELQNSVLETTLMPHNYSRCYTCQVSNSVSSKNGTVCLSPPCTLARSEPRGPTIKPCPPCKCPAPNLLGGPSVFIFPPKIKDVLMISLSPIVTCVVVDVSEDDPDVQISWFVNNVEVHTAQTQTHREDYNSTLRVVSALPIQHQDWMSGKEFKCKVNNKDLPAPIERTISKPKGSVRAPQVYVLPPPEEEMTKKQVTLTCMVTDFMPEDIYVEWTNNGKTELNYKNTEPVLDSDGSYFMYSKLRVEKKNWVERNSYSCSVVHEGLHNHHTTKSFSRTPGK
Description: as §1

[5] = biological target: T4, Monomeric human CD48-mmH (human); experiment: SPR (Biacore), antibody captured by anti-Fc, CD48 in solution, 37 C
T4 chain: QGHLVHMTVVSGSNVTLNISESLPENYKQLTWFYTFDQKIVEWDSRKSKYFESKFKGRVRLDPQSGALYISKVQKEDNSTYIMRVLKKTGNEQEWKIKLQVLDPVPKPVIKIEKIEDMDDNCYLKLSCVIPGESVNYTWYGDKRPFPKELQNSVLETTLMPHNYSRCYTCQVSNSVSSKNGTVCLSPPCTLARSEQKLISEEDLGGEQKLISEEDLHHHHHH
Summary of the method: (§2)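 Antibodies (mouse or human IgG4 Fc) captured on anti-Fc surface; soluble CD48, monomeric (myc-myc-His tag) or dimeric (Fc fusion), injected at several concentrations. ka and kd from kinetic fits; KD=kd/ka, t½=ln2/kd.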

[6] = biological target: T5, Dimeric human CD48-mFc (human); experiment: as above
T5 construct: the whole entry is the construct; also called hCD48-mFc
T5 chain: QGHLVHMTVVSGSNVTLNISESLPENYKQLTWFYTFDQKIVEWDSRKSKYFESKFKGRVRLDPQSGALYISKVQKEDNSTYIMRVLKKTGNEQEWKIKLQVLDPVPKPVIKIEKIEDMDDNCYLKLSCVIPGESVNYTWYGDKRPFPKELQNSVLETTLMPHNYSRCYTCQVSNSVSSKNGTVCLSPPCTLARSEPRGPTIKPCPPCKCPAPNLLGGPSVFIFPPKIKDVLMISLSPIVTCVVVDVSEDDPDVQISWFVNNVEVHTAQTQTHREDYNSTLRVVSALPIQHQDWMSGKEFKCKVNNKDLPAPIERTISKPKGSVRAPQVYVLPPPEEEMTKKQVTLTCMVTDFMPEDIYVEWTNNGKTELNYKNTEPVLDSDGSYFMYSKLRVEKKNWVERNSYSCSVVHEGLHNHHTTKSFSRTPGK
Summary of the method: as §2

[7] = biological target: T6, Monomeric monkey CD48-mmH (monkey); experiment: as above
T6 construct: Soluble monkey CD48 with a myc-myc-hexa-histidine C-terminal tag; the whole entry is the construct; also called mfCD48-mmH
T6 chain: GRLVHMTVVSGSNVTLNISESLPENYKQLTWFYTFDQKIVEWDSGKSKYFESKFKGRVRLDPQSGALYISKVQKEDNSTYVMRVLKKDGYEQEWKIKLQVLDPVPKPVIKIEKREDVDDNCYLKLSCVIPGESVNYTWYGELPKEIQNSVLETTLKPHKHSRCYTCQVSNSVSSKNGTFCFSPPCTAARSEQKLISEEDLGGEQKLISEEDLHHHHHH
Summary of the method: as §2

[8] = biological target: T7, Dimeric monkey CD48-mFc (monkey); experiment: as above
T7 construct: Soluble monkey CD48 with a C-terminal Fc fusion [mFc]; the whole entry is the construct
T7 chain: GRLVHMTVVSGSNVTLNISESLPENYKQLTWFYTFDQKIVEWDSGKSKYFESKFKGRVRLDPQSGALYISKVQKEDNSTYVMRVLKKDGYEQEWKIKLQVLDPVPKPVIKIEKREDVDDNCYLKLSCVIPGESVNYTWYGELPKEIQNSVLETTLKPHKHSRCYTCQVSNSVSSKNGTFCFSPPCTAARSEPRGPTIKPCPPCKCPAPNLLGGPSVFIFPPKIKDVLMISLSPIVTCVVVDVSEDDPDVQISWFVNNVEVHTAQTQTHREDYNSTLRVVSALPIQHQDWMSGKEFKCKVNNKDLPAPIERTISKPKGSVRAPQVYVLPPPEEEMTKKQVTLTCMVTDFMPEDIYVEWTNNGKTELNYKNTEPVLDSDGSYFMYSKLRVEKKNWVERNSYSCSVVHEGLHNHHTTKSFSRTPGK
Summary of the method: as §2

[9] = biological target: T6, Monomeric monkey CD48-mmH; experiment: SPR (Biacore), antibody captured by anti-Fc, CD48 in solution, 25 C
Description: (§3) Measurements were conducted on a T100-2 BIACORE™ instrument (Biacore Life Sciences division of GE Healthcare, Piscataway, N.J.). Antibodies (either with mouse Fc [designated “H2M” or “H3M”] or human IgG4 Fc [designated “H4H”]) were captured through an anti-Fc chip surface, and CD48 was flowed over the surface either in a monomeric (soluble CD48 expressed with a myc-myc-hexa-histidine C-terminal tag [mmH]) or dimeric (soluble CD48 expressed with a C-terminal Fc fusion [mFc]) format.
(§4) The soluble CD48 was applied to the flow cell in separate injections at different concentrations, and kinetic association (kₐ) and dissociation (kd) rate constants were determined by fits to the kinetic binding data using Biacore software. Binding dissociation equilibrium constants and dissociation half-times were calculated from the kinetic rate constants as: KD=kd/kₐ; t_{1/2}=(ln 2/kd) (units: ka=M⁻¹*s⁻¹; kd=s⁻¹; KD=M; T½=min) (Tables 3-6).

[10] = biological target: T7, Dimeric monkey CD48-mFc; experiment: as above
Description: as §3, §4

Inhibition of IFN-gamma Release IC50; Donor 9 [1]: 5.7e-12 Molar
Inhibition of IFN-gamma Release IC50; Donor 11 [1]: 1.9e-11 Molar
% Blockade of IFNγ release, MLR; D2 [2]: 60%
% Blockade of IFNγ release, MLR; D3 [2]: 39%
% Blockade of IFNγ release, MLR; D5 [2]: 43%
% Blockade of IFNγ release, MLR; D6 [2]: 60%
% Blockade of IFNγ release, MLR; D7 [2]: 51%
% Blockade of IFNγ release, MLR; D8 [2]: 40%
B1: H4H1769Pa (antibody, human IgG4, V domains shown)
VH: QVQLVQSGAEVKKPGASVKVSCKTSGYTFAGYGITWVRQAPGRGLEWMGWVSAYNGDTDYAQSLQGRVTMTTDTSTSTAYMELRSLRSDDTAMYYCARDRYSSSSGYFDYWGQGTLVTVSS
VL: DIQMTQSPSSVSASVGDRVTITCRASQGISSWLAWHQQKPGKAPKVLIYAASSLHSGVPSRFSGSGSGTEFTLTISSLQPEDFATYYCQQANTFPYTFGQGTKLEIK

IC50 [3]: 0.022 nM
IC50 [4]: 0.02 nM
B2: H4H1770P (antibody, human IgG4, V domains shown)
VH: QVQLVQSGAEVKKPGAAVKVSCKASGYTFTAYGISWVRQAPGQGLEWMGWISAYDGDTNNAQKFQGRVTMTTDTSSSTAYMELRSLGSDDTAVYYCARDRYSSSSGYFDYWGQGTLVTVSS
VL: DIQMTQSPSSVSASVGDRVTITCRASQDISSWLAWSQQKPGKAPKALIYAASSLQSGVPSRFSGSGSGTDFTLTISSLQPEDFATYYCQQANSFPYTFGQGTKLEIK
notes: Human IgG4 Fc (H4H)

Kd [5]: 0.837 nM
T½ [5]: 1.7 h
koff [5]: 0.000113 s⁻¹
kon [5]: 135000 M⁻¹ s⁻¹
Kd [6]: 0.0746 nM
T½ [6]: 5.45 h
koff [6]: 3.53e-05 s⁻¹
kon [6]: 473000 M⁻¹ s⁻¹
Kd [7]: 1.34 nM
T½ [7]: 0.767 h
koff [7]: 0.000253 s⁻¹
kon [7]: 189000 M⁻¹ s⁻¹
Kd [8]: 0.0686 nM
T½ [8]: 5.35 h
koff [8]: 3.6e-05 s⁻¹
kon [8]: 525000 M⁻¹ s⁻¹
Kd [9]: 0.325 nM
T½ [9]: 2.15 h
koff [9]: 8.98e-05 s⁻¹
kon [9]: 276000 M⁻¹ s⁻¹
Kd [10]: 0.046 nM
T½ [10]: 10.9 h
koff [10]: 1.77e-05 s⁻¹
kon [10]: 384000 M⁻¹ s⁻¹
B3: H4H1778P (antibody, human IgG4, V domains shown)
VH: QVQLVESGGGVVQPGRSLRLSCAASGFTFSNYGMHWVRQAPGKGLEWVAVIWYDESSKYYTDSVKGRFTISRDNSQNTLYLQMTSLRAEDTAVYYCARDRWTYSHYFEYWGQGTLVTVSS
VL: DIQMTQSPSSVSASVGDRVTITCRASQGISSWVAWYQQKPGKAPKLLIYAASSLQSGVPSRFSGSGSGTDFTLTISSLQPEDFATYYCQQANSFPRTFGQGTKVEIK
notes: Human IgG4 Fc (H4H)
